Data from patent publication US12378324B2, “Anti superoxide dismutase 1 (SOD1) antibodies and use thereof” (B. G. NEGEV TECHNOLOGIES AND APPLICATIONS LTD., AT …, priority 2018, dated 2025).

Key:
Assay type in all cases: binding
apo-SOD1^WT = apo-SOD1^WT (Homo sapiens, UniProt P00441); test: ELISA of hybridoma supernatants with SOD1 variants as coating antigens; conditions: WT in the absence of Cu2+ and Zn2+, similar to SOD1^G93A and SOD1^G85R
Excerpt: (§1) FIGS. 1A-1B are an image and a graph showing (1A) the surface pocket shaped by the two β6/β7 loops (arrows) in the intact SOD1^WT dimer, and (1B) the results of enzyme linked immunosorbent assay (ELISA) of supernatants of several hybridoma clones expressing anti-β6/β7-loop monoclonal antibody (mAb) using SOD1 variants as coating antigens. NC—negative control. WT—wild type; apo—WT in the absence of metals (Cu^2+ and Zn^2+); holo—WT in the presence of metals (Cu^2+ and Zn^2+); G93A—Glycine at position 93 was substituted to Alanine; G85R—Glycine at position 85 was substituted to Arginine; antigen peptide—peptide used to produce the disclosed mAb.
(§2) The loss of stabilizing metals, especially Zn^2+ is considered as the primary event which triggers the noxious structural transformation of SOD1, ultimately resulting in amyloid aggregation. Therefore, it is possible that the exposure of the β6/β7 loop epitope represents an early manifestation of the SOD1 noxious misfolding, and it is a common feature for both SOD1^WT and fALS SOD1^MUT. This early β6/β7 loop epitope is fundamentally different from the late epitopes of misfolded SOD1 such as those exposed on the dimer interface upon SOD1 monomerization; they correspond to the advanced stages of SOD1 misfolding and are apparently irreversible.

holo-SOD1^WT = holo-SOD1^WT (Homo sapiens, UniProt P00441); test: as above; conditions: apo-SOD1^WT saturated with Cu2+ and Zn2+ by dialysis
holo-SOD1^WT, sequence (P00441 2-154 limits assumed): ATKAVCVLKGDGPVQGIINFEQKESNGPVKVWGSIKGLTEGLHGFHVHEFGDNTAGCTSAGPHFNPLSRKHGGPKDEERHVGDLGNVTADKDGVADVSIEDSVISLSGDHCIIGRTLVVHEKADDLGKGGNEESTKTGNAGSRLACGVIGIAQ
Excerpt: as §1, §2

[1] = system: misfolded familial ALS (fALS) mutants of SOD1 (SOD1^G93A and SOD1^G85R); test: as above; conditions: FIG. 1B, SOD1^G93A and SOD1^G85R vs intact SOD1^WT
Excerpt: as §1, §2

[2] = system: misfolded SOD1 variants (apo-SOD1^WT, holo-SOD1^WT, apo-SOD1^G93A, apo-SOD1^G85R); test: ELISA of secreted scFv-Ab (supernatant of transfected HEK 293 cells) on SOD1 variants; conditions: FIG. 2, HEK 293 supernatant, anti-c-myc detection
Excerpt: Binding of secreted scFv-Ab (as supernatant of HEK 293 cells transfected with the vector expressing scFv-Ab) to SOD1 variant (apo-SOD1^WT, holo-SOD1^WT, apo-SOD1^G93A, and apo-SOD1^G85R), was quantified by enzyme-linked immunosorbent assay (ELISA).
The inventors have constructed a single-chain fragment variable antibody (scFv-mAb), representing a hybrid protein that comprises both heavy and light chain variable Ig regions of the anti-β6/β7-loop mAb connected by a short flexible linker (linker length 15-20 amino acids). The advantages of single-chain antibody are its small size, low immunogenicity and increased half-life (due to the reduced clearance via Fc-mediated microglia phagocytosis), and the ability to be used in a gene delivery system, such as recombinant adeno-associated virus, AAV6, for intra- or extracellular expression. AAV vectors have a broad cell type tropism, provide stable and safe gene expression and minimize immune response. […] Recent advances in AAV vector engineering enabled these vectors (AAV9) to be injected directly IV to obtain efficient CNS expression DNA sequences encoding the scFv-Ab of the invention were further optimized in terms of the codon usage for expression in mammalian cells (e.g., murine). […]

apo-SOD1^WT, sequence (P00441 2-154 limits assumed): as above

| Molecule | recognition of metal-free apo-SOD1^WT (apo-SOD1^WT) | mAb binding to holo-SOD1^WT (holo-SOD1^WT) | discrimination between the intact SOD1^WT and misfolded fALS mutants of SOD1 [1] | binding of scFv-Ab to SOD1 variants [2] |
| --- | --- | --- | --- | --- |
| 6D12B10: rat monoclonal antibody against the β6/β7 loop of SOD1, raised with KLH-conjugated SE-21 peptide (antibody, V domains shown) VH: QIQLVQSGPELKKPGESVSISCKASGYTFTDSAIHWVKQAPGKGLKYMGWINTYTGKPTYADDFKGRFVFSLEASASTAKLQISNLKSEDTATFFCARSVYSYDGTFYRYFLDAWGQGASVTVSS VL: DTVLTQSPALAVSPGEKVTISCRASESVSKHIHWFQQKSGQQPTLLIYLASSLESGVPARFSGSGSGTDFTLTIDPVEADDTATYYCQQSWNDPWTFGGGTKLELK | recognized metal-free apo-SOD1^WT as misfolded protein | completely abolished mAbs binding | complete discrimination |  |
| scFv-Ab: single-chain fragment variable antibody: heavy and light chain variable regions of the anti-β6/β7-loop mAb joined by a flexible linker (protein, left off: small tags and cut ends, single-chain fragment variable antibody: heavy and light chain variable regions of the anti-β6/β7-loop mAb joined by a flexible linker) scFv: QIQLVQSGPELKKPGESVSISCKASGYTFTDSAIHWVKQAPGKGLKYMGWINTYTGKPTYADDFKGRFVFSLEASASTAKLQISNLKSEDTATFFCARSVYSYDGTFYRYFLDAWGQGASVTVSSGGGGSGGGGSGGGGSDTVLTQSPALAVSPGEKVTISCRASESVSKHIHWFQQKSGQQPTLLIYLASSLESGVPARFSGSGSGTDFTLTIDPVEADDTATYYCQQSWNDPWTFGGGTKLELKGGGGS |  |  |  | selectively recognizes misfolded SOD1 variants |
